In article doi:10.1101/749960:

Biological target: isolated C-terminal domain of FusB (FusBCTD) (Pectobacterium carotovorum LMG2410)
Assay: ITC

Substance: spinach ferredoxin (FerSp) (from UniProt P00221 51-147) (natural protein)
- Kd: 8.7 µM
